Experimental findings from paper PMC11497264 (2024) are described below.

Bridge positions count the residues as written; N and C are the ends.

One may read the koff as the rate constant with which the complex falls apart. Read a low koff as a long-lived complex. Broadly, the Kd is the free concentration of one partner at which half of the binding sites on the other are occupied at equilibrium, for simple one-to-one binding.

The target of experiment [1] is T1, human glucose-regulated protein GRP78 (human, UniProt P11021 19-654). Kind of experiment: SPR; two-state model, kd1.
T1 sequence (P11021 19-654): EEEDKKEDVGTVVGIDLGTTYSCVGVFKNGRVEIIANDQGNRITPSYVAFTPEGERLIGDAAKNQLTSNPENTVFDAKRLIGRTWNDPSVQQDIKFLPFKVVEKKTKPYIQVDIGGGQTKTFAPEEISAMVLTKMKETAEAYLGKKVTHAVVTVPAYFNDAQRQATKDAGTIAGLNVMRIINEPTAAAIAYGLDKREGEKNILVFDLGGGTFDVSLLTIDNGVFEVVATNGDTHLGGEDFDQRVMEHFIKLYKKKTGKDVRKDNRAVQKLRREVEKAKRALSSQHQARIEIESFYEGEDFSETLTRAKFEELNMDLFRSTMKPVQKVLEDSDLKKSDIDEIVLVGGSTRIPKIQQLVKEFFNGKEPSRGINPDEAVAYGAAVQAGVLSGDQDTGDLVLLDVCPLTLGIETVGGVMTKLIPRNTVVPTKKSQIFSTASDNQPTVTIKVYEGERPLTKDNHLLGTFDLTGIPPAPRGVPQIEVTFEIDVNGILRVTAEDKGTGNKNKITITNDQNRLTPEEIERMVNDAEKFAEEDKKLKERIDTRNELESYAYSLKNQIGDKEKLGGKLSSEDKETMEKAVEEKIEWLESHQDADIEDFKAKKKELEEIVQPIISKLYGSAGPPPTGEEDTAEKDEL
In experiment [2] the target is T1, human glucose-regulated protein GRP78. Nature of the experiment: SPR; two-state reaction model.
The target is the same in experiment [3]. Nature of the experiment: SPR. Background: Surface plasmon resonance follows binding to a sensor surface in real time, without labels.
For experiment [4] the target is unchanged. Nature of the experiment: SPR. The source holds these as a separate data set.

B1: Pep42, 13-mer cyclopeptide (peptide)
peptide: H-CTVALPGGYVRVC-NH2
modifications: disulfide 1-13
SMILES: CC(C)C[C@@H]1NC(=O)[C@H](C)NC(=O)[C@H](C(C)C)NC(=O)[C@H]([C@@H](C)O)NC(=O)[C@@H](N)CSSC[C@@H](C(N)=O)NC(=O)[C@H](C(C)C)NC(=O)[C@H](CCCNC(=N)N)NC(=O)[C@H](C(C)C)NC(=O)[C@H](Cc2ccc(O)cc2)NC(=O)CNC(=O)CNC(=O)[C@@H]2CCCN2C1=O
Turning to B1, the koff in experiment [1] came out at 0.678 s⁻¹. In experiment [2], this molecule returned a Kd of 3430 µM.

B2: LCP W, loop-derived cyclic peptide based on spike residues 480-488 of the Wuhan strain (peptide)
peptide: H-CNGVEGFNC-NH2
modifications: disulfide 1-9
SMILES: CC(C)[C@@H]1NC(=O)CNC(=O)[C@H](CC(N)=O)NC(=O)[C@@H](N)CSSC[C@@H](C(N)=O)NC(=O)[C@H](CC(N)=O)NC(=O)[C@H](Cc2ccccc2)NC(=O)CNC(=O)[C@H](CCC(=O)O)NC1=O
Consider B2, for which, in experiment [3], the Kd is 259 µM. The off-rate constant (koff) in experiment [4] was 0.43 s⁻¹.
